According to patent US7838294B2, “Inhibitors of the JNK signal transduction pathway and methods of use” (University of Massachusetts, priority 1997, dated 2010):
Entries after “also recorded” stand apart in the source; their conditions may differ. No end group written: not given here.

How the values were obtained:
Format in all cases: binding
JNK1 = molecular target: T1, JNK1 (Homo sapiens, UniProt P45983); assay: GST-fusion pull-down from cell lysates, Flag immunoblot: JNK1; conditions: for binding to JNK1: 5 μg GST-fusion protein on glutathione-Sepharose, Flag-JNK1 lysate, one hour 4° C.; for level of binding to JNK1 compared with JNK2: GST pull-down, Flag immunoblot
T1 construct: expressed in transfected cells
T1 sequence (P45983 1-384 isoform P45983-2): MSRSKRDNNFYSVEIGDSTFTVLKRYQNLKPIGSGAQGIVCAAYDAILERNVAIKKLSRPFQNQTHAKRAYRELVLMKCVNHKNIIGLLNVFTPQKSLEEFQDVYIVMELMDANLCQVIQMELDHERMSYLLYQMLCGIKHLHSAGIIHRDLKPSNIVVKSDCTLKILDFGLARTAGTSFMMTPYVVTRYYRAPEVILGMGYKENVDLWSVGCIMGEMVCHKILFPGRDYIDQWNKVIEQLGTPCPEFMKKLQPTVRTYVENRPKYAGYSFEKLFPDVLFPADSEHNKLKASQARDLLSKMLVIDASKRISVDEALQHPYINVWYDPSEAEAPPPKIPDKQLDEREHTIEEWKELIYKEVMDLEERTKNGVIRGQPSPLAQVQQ
Protocol: (§1) To test whether JIP-1 binding to JNK is also isoform-dependent, a binding assay was utilized. Cell lysates (1 ml in TLB) containing JNK1, JNK2, or p38 MAP kinase, each tagged with the Flag epitope, were incubated with 5 μg GST-fusion proteins pre-bound to 10 μl glutathione-Sepharose. The GST fusion proteins used contain residues 127-202 (SEQ ID NO:15), 203-281 (SEQ ID NO:16), 164-240 (SEQ ID NO:17), or 127-281 (SEQ ID NO:4) of JIP-1. The GST-ATF2 fusion protein contains residues 1-109 of ATF2, and the GST-Jun fusion protein contains residues 1-79 of c-Jun. After incubation for one hour at 4° C. and three washes with TLB, bound proteins were detected by protein immunoblot analysis with the M2 monoclonal antibody, which is specific for the Flag epitope. Dérijard, et al., supra; Sluss et al., supra; Gupta et al., supra. […] This finding is consistent with the results of previous studies. In contrast, when GST-JIP-1 fusion proteins containing residues 127-202 or 127-281 of JIP-1 were tested in the assay, these proteins bound both JNK1 and JNK2.
(§2) The GST-JIP-1 fusion proteins containing various portions of the JIP-1 gene were used to define regions of JIP-1 that are required for JNK interaction. A GST-JIP-1 fusion protein containing residues 127-281 of JIP-1 bound both JNK1 and JNK2.
(§3) To more precisely define the JIP-1 sequence required for JNK binding activity, additional […] fusion proteins were constructed. These fusion proteins contained residues 135-202 (SEQ ID NO:18), 144-202 (SEQ ID NO:19), 154-202 (SEQ ID NO:20), 164-202 (SEQ ID NO:21), 127-143 (SEQ ID NO:22), 127-153 (SEQ ID NO:23), or 127-163 (SEQ ID NO:24) of JIP-1. Proteins containing residues 127-202, 135-202, 144-202, […], and 127-163 all bound both JNK1 and JNK2. Thus, JIP-1 residues 144-163 are important for the interaction of JIP-1 with JNK.

JNK2 = molecular target: T2, JNK2 (Homo sapiens, UniProt P45984); assay: GST-fusion pull-down from cell lysates, Flag immunoblot: JNK2; conditions: 5 μg GST-fusion protein on glutathione-Sepharose, Flag-JNK2 lysate, one hour 4° C.
T2 construct: expressed in transfected cells
Protocol: as §1, §2, §3

[1] = molecular target: T3, JIP-1-JNK interaction (JNK1) (Homo sapiens, UniProt P45983); assay: Synthetic peptide competition of JIP-1-JNK interaction (GST-JIP-1 127-281 pull-down); conditions: for effect of peptide on JIP-1 binding to JNK1: peptide 0, 4, 8, 16, 32, and 64 μg/ml, GST-JIP-1 (residues 127-281); for inhibition of JIP-1 binding to JNK by peptide: synthetic peptides 64 μg/ml, JNK1 binding to GST-JIP-1 residues 127-281
T3 construct: expressed in transfected cells; GST-JIP-1 from a bacterial pGEX-3X vector
T3 sequence (P45983 1-384 isoform P45983-2): as above
Protocol: The effect of increasing concentrations (0, 4, 8, 16, 32, and 64 μg/ml) of a synthetic peptide corresponding to JIP-1 residues 148-174 (SEQ. ID NO:3) or a control peptide having a scrambled sequence (SEQ ID NO:12) on JIP-1-JNK interaction was examined. Peptides were synthesized using an Applied Biosystems machine. Cell lysates containing Flag epitope-tagged JNK were incubated with GST-JIP-1 (residues 127-281) prebound to glutathione-Sepharose. The beads were washed, and bound proteins were detected by protein immunoblot analysis with a Flag-specific antibody.
The JNK binding domain of JIP-1 contains three amino acids, Lys-155, Thr-159, and Leu-160, that are conserved in the JNK binding domains of ATF2 and c-Jun (FIG. 2). A hydrophobic amino acid, Leu, is found at residue 162 of JIP-1. ATF2 and c-Jun also contain hydrophobic amino acids (ATF2, Phe; c-Jun, Leu) in the position corresponding to residue 162 of JIP-1. To test if these conserved residues are involved in JNK binding, the wild type JIP-1 JBD (residues 148-174) was substituted with glycines in these positions to produce the peptides shown in FIG. 3 (SEQ ID NOs:7-11). The mutant peptides are identical to the wild type peptide except for the indicated glycine substitutions. The binding of JNK1 to GST, as well as a GST fusion protein containing JIP-1 residues 127-281, was examined in the absence and presence of the synthetic peptides (64 μg/ml). A peptide with a scrambled sequence (SEQ ID NO:12) was used as a control. […] In contrast, the control peptide caused no change in JNK binding.
Peptides suspected of having JIP-1 activity can be tested in the JNK binding assay described supra. Peptides are synthesized by methods that are well known to those skilled in the art; for example, using an Applied Biosystems synthesizer. Cell lysates containing Flag epitope-tagged JNK are incubated with GST-JIP-1 (residues 127-281) bound to glutathione-Sepharose, either with or without synthetic peptides (0, 4, 8, 16, 32 or 64 μg/ml), for one hour at 4° C. The beads are washed in TLB, and the bound proteins are detected by protein immunoblot analysis with a Flag-specific antibody, e.g., M2. Synthetic peptides with JIP-1 activity are those which inhibit the interaction of JIP-1 with JNK, as detected in this assay.

“GST-JIP-1 residues 127-163: GST fusion protein containing residues 127-163 of JIP-1 (PKAESNQDPAPRSQGQGPGTGSGDTYRPKRPTTLNLF; also: GST fusion; UniProt Q9WVI9 127-163, looked up, fragment)” was tested, and the “binding to JNK1” value (JNK1) was “bound” and the “binding to JNK2” value (JNK2) was “bound”.

“GST-JIP-1 residues 144-202: GST fusion protein containing residues 144-202 of JIP-1 (PGTGSGDTYRPKRPTTLNLFPQVPRSQDTLNNNSLGKKHSWQDRVSRSSSPLKTGEQTP; also: GST fusion; UniProt Q9WVI9 144-202, looked up, fragment)” was tested, and the “binding to JNK1” value (JNK1) was “bound” and the “binding to JNK2” value (JNK2) was “bound”.

“GST-JIP-1 residues 154-202: GST fusion protein containing residues 154-202 of JIP-1 (PKRPTTLNLFPQVPRSQDTLNNNSLGKKHSWQDRVSRSSSPLKTGEQTP; also: GST fusion; UniProt Q9WVI9 154-202, looked up, fragment)” was tested, and the “binding to JNK1” value (JNK1) was “bound” and the “binding to JNK2” value (JNK2) was “bound”.

With “SEQ ID NO:12: control peptide having a scrambled sequence (NSLGTDDTQYSRRPPKVRQPNPTFTLL) [reference compound]” the “effect of peptide on JIP-1 binding to JNK1” value [1] was “no effect” and the “inhibition of JIP-1 binding to JNK by peptide” value [1] was “no change”.

With “SGDTYRPKRPTTLNLFPQVPRSQDTLN [JIP-1 residues 148-174, synthetic peptide corresponding to JIP-1 residues 148-174, core of the JBD]” the “effect of peptide on JIP-1 binding to JNK1” value [1] was “dose-dependent decrease” and the “inhibition of JIP-1 binding to JNK by peptide” value [1] was “dose-dependent inhibition”.

B1: GST-JIP-1 residues 127-281: GST fusion protein containing residues 127-281 of JIP-1 (protein)
chain: PKAESNQDPAPRSQGQGPGTGSGDTYRPKRPTTLNLFPQVPRSQDTLNNNSLGKKHSWQDRVSRSSSPLKTGEQTPPHEHICLSDELPPQGSPVPTQDRGTSTDSPCRRSAATQMAPPSGPPATAPGGRGHSHRDRIHYQADVRLEATEEIYLTP
modifications: left off: a dimerising Fc or GST
For B1, the “binding to JNK1” value (JNK1) was “bound” and the “binding to JNK2” value (JNK2) was “bound”.

B2: GST-JIP-1 residues 135-202: GST fusion protein containing residues 135-202 of JIP-1 (protein, UniProt Q9WVI9 135-202, looked up, fragment)
chain: PAPRSQGQGPGTGSGDTYRPKRPTTLNLFPQVPRSQDTLNNNSLGKKHSWQDRVSRSSSPLKTGEQTP
modifications: GST fusion
In the case of B2, the “binding to JNK1” value (JNK1) is reported as “bound” and the “binding to JNK2” value (JNK2) is reported as “bound”.

B3: GST-JIP-1 residues 164-240: GST fusion protein containing residues 164-240 of JIP-1 (central region) (protein, UniProt Q9WVI9 164-240, looked up, fragment)
chain: PQVPRSQDTLNNNSLGKKHSWQDRVSRSSSPLKTGEQTPPHEHICLSDELPPQGSPVPTQDRGTSTDSPCRRSAATQ
modifications: GST fusion
For B3, the “binding to JNK1” value (JNK1) was “No JNK binding was detected” and the “binding to JNK2” value (JNK2) was “No JNK binding was detected”.

B4: GST-JIP-1 residues 127-202: GST fusion protein containing residues 127-202 of JIP-1 (amino terminal region) (protein, UniProt Q9WVI9 127-202, looked up, fragment)
chain: PKAESNQDPAPRSQGQGPGTGSGDTYRPKRPTTLNLFPQVPRSQDTLNNNSLGKKHSWQDRVSRSSSPLKTGEQTP
modifications: GST fusion
B4 was tested, and the “binding to JNK1” value (JNK1) was “bound; also recorded: JNK binding activity was observed” and the “binding to JNK2” value (JNK2) was “bound; also recorded: JNK binding activity was observed”.

B5: GST-JIP-1 residues 203-281: GST fusion protein containing residues 203-281 of JIP-1 (carboxy terminal region) (protein, UniProt Q9WVI9 203-281, looked up, fragment)
chain: PHEHICLSDELPPQGSPVPTQDRGTSTDSPCRRSAATQMAPPSGPPATAPGGRGHSHRDRIHYQADVRLEATEEIYLTP
modifications: GST fusion
B5 was tested, and the “binding to JNK1” value (JNK1) was “No JNK binding was detected” and the “binding to JNK2” value (JNK2) was “No JNK binding was detected”.

B6: GST-Jun: GST fusion protein containing residues 1-79 of c-Jun (protein)
chain: MTAKMETTFYDDALNASFLPSESGPYGYSNPKILKQSMTLNLADPVGSLKPHLRAKNSDLLTSPDVGLLKLASPELERL
modifications: left off: a dimerising Fc or GST
notes: GST fusion protein containing residues 1-79 of c-Jun
For B6, the “level of binding to JNK1 compared with JNK2” value (JNK1) was “greater than binding to JNK2”.

B7: GST-ATF2: GST fusion protein containing residues 1-109 of ATF2 (protein)
chain: MKFKLHVNSARQYKDLWNMSDDKPFLCTAPGCGQRFTNEDHLAVHKHKHEMTLKFGPARNDSVIVADQTPTPTRFLKNCEEVGLFNELASPFENEFKKASEDDIKKMPL
modifications: left off: a dimerising Fc or GST
notes: GST fusion protein containing residues 1-109 of ATF2
In the case of B7, the “level of binding to JNK1 compared with JNK2” value (JNK1) is reported as “greater than binding to JNK2”.
